Patent US20150258192A1, “COMPOSITIONS AND METHODS FOR PREVENTING OR TREATING CHRONIC LUNG ALLOGRAFT DYSFUNCTION (CLAD) AND IDIOPATHIC PULMONARY FIBROSIS (IPF)” (priority 2014, published 2015)
No end group written: not given here.

How the values were obtained:
Assay in all cases: Kinase Profiling Assay
Type in all cases: biochemical
Conditions in all cases: peptide 100 μM
CaMKIIδ(h) = CaMKIIδ(h) (Homo sapiens, UniProt Q13557)
Outline: (§1)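 Each kinase activity was measured in duplicate. Phosphorylation of a positively charged substrate with radiolabeled phosphate from ATP was captured on a negatively charged filter, counted by scintillation and expressed relative to a 100% activity control. MK2 inhibitory peptides were screened for specificity across 266 human kinases.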

MARK1(h) = biological target: T1, MARK1(h) (Homo sapiens, UniProt Q9P0L2)
T1 construct: purchased Millipore
Outline: as §1

CaMKI(h) = CaMKI(h) (Homo sapiens, UniProt Q14012)
Outline: as §1

EphA8(h) = biological target: T2, EphA8(h) (Homo sapiens, UniProt P29322)
T2 sequence (P29322 28-1005): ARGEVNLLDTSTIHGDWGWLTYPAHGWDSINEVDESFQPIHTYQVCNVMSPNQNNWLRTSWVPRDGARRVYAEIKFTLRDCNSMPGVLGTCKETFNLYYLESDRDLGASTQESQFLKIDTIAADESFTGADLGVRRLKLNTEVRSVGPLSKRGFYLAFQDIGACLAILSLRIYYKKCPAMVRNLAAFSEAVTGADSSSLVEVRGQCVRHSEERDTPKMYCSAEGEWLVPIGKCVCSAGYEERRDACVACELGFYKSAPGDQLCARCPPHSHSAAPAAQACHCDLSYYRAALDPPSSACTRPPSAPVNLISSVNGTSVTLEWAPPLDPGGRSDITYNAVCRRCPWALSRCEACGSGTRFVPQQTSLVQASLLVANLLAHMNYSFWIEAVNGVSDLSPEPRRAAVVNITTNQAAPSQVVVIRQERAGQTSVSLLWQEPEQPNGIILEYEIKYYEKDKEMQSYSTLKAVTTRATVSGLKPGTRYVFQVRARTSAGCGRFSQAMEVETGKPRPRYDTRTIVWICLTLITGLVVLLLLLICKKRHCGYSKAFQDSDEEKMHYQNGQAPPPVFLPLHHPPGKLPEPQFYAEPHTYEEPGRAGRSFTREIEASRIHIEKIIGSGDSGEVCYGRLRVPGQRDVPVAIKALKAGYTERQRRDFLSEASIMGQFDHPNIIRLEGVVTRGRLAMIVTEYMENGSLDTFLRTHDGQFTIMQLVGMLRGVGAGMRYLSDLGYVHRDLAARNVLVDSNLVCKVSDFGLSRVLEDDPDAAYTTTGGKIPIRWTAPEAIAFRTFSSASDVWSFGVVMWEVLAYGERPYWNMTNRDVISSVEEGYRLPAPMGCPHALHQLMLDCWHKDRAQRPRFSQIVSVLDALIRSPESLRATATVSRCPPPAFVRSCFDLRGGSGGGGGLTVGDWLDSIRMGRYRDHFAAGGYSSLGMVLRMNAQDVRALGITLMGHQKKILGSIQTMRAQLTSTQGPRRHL
Outline: as §1

Ros(h) = Ros(h) (Homo sapiens, UniProt P08922)
Outline: as §1

Itk(h) = biological target: T3, Itk(h) (Homo sapiens, UniProt Q08881)
T3 construct: purchased Millipore
T3 sequence (Q08881 1-620): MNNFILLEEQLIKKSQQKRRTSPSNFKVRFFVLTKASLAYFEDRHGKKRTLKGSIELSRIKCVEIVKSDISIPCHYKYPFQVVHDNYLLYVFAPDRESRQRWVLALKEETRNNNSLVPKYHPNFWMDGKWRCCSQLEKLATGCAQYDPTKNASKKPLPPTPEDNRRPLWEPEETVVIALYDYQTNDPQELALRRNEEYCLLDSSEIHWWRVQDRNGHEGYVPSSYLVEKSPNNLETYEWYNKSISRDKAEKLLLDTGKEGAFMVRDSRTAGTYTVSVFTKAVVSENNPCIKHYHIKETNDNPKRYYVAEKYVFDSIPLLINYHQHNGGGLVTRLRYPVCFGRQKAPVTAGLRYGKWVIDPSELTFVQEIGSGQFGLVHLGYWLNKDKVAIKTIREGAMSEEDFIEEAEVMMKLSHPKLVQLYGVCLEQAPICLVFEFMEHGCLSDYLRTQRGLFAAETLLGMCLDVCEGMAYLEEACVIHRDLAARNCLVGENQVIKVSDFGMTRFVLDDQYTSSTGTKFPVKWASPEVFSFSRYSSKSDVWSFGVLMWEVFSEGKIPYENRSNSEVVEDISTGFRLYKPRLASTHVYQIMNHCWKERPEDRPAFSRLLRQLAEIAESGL
Outline: as §1

BTK(R28H)(h) = BTK(R28H)(h) (Homo sapiens, UniProt Q06187, R28H)
Outline: as §1

EGFR(L858R)(h) = EGFR(L858R)(h) (Homo sapiens, UniProt P00533, L858R)
Outline: as §1

cKit(V560G)(h) = cKit(V560G)(h) (Homo sapiens, UniProt P10721, V560G)
Outline: as §1

T1 sequence (Q9P0L2 whole entry): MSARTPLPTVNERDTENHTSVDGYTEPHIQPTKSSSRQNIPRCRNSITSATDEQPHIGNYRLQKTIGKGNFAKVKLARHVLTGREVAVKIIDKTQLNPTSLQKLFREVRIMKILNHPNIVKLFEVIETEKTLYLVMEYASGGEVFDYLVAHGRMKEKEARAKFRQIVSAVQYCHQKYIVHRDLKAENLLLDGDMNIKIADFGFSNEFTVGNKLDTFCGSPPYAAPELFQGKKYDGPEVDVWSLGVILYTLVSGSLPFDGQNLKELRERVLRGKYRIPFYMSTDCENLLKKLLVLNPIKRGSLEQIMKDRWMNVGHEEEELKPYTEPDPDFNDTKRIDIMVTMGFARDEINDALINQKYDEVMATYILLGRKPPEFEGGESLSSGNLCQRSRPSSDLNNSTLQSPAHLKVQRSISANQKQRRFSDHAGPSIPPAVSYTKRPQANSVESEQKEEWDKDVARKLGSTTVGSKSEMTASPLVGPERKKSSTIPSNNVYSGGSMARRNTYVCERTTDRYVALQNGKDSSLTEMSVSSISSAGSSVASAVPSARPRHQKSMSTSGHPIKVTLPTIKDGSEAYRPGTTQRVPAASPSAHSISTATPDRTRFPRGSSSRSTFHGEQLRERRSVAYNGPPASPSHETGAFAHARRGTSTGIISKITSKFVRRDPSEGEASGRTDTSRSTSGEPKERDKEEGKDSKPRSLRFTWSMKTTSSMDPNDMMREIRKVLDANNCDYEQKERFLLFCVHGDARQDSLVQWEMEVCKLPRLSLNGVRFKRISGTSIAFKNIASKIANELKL
Chain of BTK(R28H)(h) (Q06187 whole entry R28H): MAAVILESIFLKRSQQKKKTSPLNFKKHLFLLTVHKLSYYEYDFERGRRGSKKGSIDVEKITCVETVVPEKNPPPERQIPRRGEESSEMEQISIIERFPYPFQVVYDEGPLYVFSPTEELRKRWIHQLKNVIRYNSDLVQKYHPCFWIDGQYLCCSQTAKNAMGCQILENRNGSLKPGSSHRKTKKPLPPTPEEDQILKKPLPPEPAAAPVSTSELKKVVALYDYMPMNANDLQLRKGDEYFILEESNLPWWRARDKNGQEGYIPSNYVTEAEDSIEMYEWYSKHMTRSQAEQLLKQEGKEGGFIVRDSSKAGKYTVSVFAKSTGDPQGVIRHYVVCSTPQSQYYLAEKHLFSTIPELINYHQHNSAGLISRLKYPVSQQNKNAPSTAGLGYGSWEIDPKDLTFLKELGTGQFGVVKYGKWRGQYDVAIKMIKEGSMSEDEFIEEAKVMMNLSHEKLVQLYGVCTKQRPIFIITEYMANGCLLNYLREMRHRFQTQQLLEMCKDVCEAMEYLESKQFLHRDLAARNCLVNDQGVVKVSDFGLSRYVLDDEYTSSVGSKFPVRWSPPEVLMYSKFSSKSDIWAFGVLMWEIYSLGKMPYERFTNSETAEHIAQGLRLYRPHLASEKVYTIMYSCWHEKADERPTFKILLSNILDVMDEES
Chain of CaMKIIδ(h) (Q13557 whole entry): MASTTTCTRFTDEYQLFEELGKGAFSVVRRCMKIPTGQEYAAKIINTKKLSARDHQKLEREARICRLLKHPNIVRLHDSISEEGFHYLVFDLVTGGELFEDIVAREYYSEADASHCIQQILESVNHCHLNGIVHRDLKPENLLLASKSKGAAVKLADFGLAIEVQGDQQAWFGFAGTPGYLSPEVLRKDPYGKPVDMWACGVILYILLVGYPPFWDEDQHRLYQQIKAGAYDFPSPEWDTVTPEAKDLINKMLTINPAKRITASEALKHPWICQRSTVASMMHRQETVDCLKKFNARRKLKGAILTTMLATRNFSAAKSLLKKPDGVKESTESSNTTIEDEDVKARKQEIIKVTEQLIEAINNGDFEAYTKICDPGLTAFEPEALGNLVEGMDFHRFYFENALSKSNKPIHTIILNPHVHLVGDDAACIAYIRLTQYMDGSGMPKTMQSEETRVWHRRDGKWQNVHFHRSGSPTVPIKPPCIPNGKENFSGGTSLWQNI
Chain of Ros(h) (P08922 28-2347): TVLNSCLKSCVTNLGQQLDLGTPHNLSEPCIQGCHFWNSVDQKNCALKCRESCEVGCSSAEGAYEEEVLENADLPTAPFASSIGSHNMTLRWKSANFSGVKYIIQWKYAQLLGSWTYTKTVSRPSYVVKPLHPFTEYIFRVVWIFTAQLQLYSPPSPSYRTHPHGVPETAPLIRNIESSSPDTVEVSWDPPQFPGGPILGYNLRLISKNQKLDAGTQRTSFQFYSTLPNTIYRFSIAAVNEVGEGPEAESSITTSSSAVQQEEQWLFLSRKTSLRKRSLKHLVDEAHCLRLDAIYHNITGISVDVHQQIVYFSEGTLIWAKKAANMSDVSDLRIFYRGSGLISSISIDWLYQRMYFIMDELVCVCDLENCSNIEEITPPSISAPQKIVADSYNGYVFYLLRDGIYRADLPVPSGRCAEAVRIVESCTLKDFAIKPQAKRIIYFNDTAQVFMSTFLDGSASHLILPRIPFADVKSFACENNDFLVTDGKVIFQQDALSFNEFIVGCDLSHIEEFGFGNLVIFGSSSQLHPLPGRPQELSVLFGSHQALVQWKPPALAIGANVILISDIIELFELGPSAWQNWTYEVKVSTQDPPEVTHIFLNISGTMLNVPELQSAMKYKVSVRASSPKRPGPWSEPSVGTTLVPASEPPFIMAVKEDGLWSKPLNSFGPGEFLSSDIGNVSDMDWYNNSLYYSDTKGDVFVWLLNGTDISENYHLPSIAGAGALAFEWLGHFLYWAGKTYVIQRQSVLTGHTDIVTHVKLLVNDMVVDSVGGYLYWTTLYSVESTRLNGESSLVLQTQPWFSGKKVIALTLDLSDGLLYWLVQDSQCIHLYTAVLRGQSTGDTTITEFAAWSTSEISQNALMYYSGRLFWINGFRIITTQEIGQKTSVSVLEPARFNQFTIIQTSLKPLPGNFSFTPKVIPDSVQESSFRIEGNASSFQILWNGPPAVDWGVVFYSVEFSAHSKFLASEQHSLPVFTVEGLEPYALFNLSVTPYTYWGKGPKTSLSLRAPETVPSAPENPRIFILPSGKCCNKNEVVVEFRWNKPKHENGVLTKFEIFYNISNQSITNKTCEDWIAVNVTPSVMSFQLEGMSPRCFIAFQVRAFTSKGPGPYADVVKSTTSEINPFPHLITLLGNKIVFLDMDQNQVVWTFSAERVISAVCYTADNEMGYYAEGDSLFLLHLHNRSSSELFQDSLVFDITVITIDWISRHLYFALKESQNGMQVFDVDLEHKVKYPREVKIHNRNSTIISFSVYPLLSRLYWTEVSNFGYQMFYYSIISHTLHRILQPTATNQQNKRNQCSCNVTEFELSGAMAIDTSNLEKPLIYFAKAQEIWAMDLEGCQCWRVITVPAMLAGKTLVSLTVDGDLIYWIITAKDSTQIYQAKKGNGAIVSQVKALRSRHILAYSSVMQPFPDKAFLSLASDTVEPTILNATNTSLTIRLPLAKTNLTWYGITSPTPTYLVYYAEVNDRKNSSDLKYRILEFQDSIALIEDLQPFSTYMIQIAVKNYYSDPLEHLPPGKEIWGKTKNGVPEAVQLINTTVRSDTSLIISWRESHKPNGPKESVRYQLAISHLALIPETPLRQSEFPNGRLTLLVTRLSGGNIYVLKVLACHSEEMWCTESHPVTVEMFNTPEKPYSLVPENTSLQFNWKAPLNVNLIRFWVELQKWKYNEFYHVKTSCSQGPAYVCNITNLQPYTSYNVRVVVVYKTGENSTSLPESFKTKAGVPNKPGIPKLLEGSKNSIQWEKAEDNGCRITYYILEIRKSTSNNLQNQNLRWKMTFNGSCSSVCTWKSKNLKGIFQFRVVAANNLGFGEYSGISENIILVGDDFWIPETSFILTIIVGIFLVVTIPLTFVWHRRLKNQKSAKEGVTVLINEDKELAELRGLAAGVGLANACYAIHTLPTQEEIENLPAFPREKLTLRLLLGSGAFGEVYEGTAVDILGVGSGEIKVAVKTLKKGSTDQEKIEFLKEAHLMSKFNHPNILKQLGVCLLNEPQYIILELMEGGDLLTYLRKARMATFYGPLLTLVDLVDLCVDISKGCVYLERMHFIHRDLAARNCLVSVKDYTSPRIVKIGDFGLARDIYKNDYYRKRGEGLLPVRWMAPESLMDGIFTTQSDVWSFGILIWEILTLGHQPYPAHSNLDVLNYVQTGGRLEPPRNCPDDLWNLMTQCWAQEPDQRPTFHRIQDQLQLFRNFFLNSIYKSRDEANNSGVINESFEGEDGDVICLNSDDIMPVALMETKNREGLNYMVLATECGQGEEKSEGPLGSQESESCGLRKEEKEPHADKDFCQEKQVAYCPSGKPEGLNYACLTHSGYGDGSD

| Sequence | % activity (CaMKIIδ(h)) [%] | % activity (MARK1(h)) [%] | % activity (CaMKI(h)) [%] | % activity (EphA8(h)) [%] | % activity (Ros(h)) [%] | % activity (Itk(h)) [%] | % activity (BTK(R28H)(h)) [%] | % activity (EGFR(L858R)(h)) [%] | % activity (cKit(V560G)(h)) [%] |
| --- | --- | --- | --- | --- | --- | --- | --- | --- | --- |
| FAKLAARLYRKALARQLGVAA [MMI-0300] | 1 | 132 | 1 | 93 | 95 | 77 | 74 |  |  |
| HRRIKAWLKKIKALARQLGVAA (Mammal) [MMI-0500] | 1 | 110 | -1 | 337 | 150 | 7 | 10 | 26 | 198 |
| KAFAKLAARLYRKALARQLGVAA [MMI-0400] | 2 | 120 | 0 | 146 | 99 | 63 | 24 | 52 | 124 |
| YARAAARQARAKALARQLGVAA [MMI-0100] |  |  |  | 181 |  | 99 | 91 | 76 | 94 |
| YARAAARQARAKALNRQLGVA (Mammal) [MMI-0200] | 2 |  | 21 | 133 | 86 | 98 |  | 120 |  |
